Results as given in US5319071, “Soluble interleukin-1 receptors” (Immunex Corporation, dated 1994).
Each block holds one molecule with its values, some of them ahead of it.

Experiments:
[1] = target: native murine IL-1 receptor of EL-4 6.1 C10 cells (murine)
[2] = target: T1, recombinant human IL-1α (polypeptide composed of the C-terminal 157 residues of IL-1α, Mr 17,500 form) (human, UniProt P01583, 125I label (chloramine-T method, ca 1 atom of iodine per IL-1α molecule) where used as tracer; fluorescein isothiocyanate conjugate in flow cytometry; unlabeled as competitor; coupled to Sepharose 4B …); experiment: direct binding of 125I-IL-1α to COS cells transfected with clone 78, Scatchard analysis
T1 sequence: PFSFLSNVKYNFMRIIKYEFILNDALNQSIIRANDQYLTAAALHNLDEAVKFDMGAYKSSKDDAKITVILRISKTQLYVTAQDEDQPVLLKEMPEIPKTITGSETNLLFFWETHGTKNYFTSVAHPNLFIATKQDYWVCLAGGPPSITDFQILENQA

[3] = target: T1, recombinant human IL-1α (polypeptide …); experiment: direct binding of 125I-IL-1α to EL-4 6.1 C10 cells, Scatchard analysis
[4] = target: T1, recombinant human IL-1α (polypeptide …); experiment: receptor in Triton X-100 solution (diluted extract) inhibiting 125I-IL-1α binding to extract on nitrocellulose; competitive inhibition model

IL-2 production from EL-4 6.1 C10 cells [1]: 100%
Molecule: recombinant human IL-1α (polypeptide composed of the C-terminal 157 residues of IL-1α, Mr 17,500 form) (from UniProt P01583) (ligand)

Ka [2]: 3e+09 M⁻¹
B1: recombinant murine IL-1 receptor (clone 78 in pDC201) expressed on COS cells (receptor)
chain: LEIDVCTEYPNQIVLFLSVNEIDIRKCPLTPNKMHGDTIIWYKNDSKTPISADRDSRIHQQNEHLWFVPAKVEDSGYYYCIVRNSTYCLKTKVTVTVLENDPGLCYSTQATFPQRLHIAGDGSLVCPYVSYFKDENNELPEVQWYKNCKPLLLDNVSFFGVKDKLLVRNVAEEHRGDYICRMSYTFRGKQYPVTRVIQFITIDENKRDRPVILSPRNETIEADPGSMIQLICNVTGQFSDLVYWKWNGSEIEWNDPFLAEDYQFVEHPSTKRKYTLITTLNISEVKSQFYRYPFICVVKNTNIFESAHVQLIYPVPDFKNYLIGGFIILTATIVCCVCIYKVFKVDIVLWYRDSCSGFLPSKASDGKTYDAYILYPKTLGEGSFSDLDTFVFKLLPEVLEGQFGYKLFIYGRDDYVGEDTIEVTNENVKKSRRLIIILVRDMGGFSWLGQSSEEQIAIYNALIQEGIKIVLLELEKIQDYEKMPDSIQFIKQKHGVICWSGDFQERPQSAKTRFWKNLRYQMPAQRRSPLSKHRLLTLDPVRDTKEKLPAATHLPLG

Ka [3]: 4.3e+09 M⁻¹
Ka [4]: 4.5e+09 M⁻¹
B2: native murine IL-1 receptor of EL-4 6.1 C10 cells (receptor)
chain: B1 chain
modifications: glycoprotein (N-linked carbohydrate), Mr 82,000
